Target: PcrV on live P. aeruginosa (type III secretion system of the infecting bacteria) (Pseudomonas aeruginosa)
Assay: cell-based or functional assay

B1: V2L2 anti-PcrV monoclonal antibody (antibody, IgG1, V domains shown)
VH: EMQLLESGGGLVQPGGSLRLSCAASGFTFSSYAMNWVRQAPGEGLEWVSAITISGITAYYTDSVKGRFTISRDNSKNTLYLQMNSLRAGDTAVYYCAKEEFLPGTHYYYGMDVWGQGTTVTVSS
VL: AIQMTQSPSSLSASVGDRVTITCRASQGIRNDLGWYQQKPGKAPKLVIYSASTLQSGVPSRFSGSGSGTDFTLSISSLQPDDFATYYCLQDYNYPWTFGQGTKVEIK
  inhibition of cytotoxicity, IC50 against that of mAb166: 28 fold
  percent inhibition of cytotoxicity (lysis of A549 cells by P. aeruginosa 6077, LDH release), IC50: 0.1 µg/mL
  prevention of RBC lysis, IC50 against that of mAb166: 10 fold
  prevention of lysis of rabbit RBCs by P. aeruginosa 6077, IC50: 0.37 µg/mL
